Measured values as given in patent US20250043302A1, “MUTATED HYDROXYPHENYLPYRUVATE DIOXYGENASE POLYPEPTIDE, AND CODING GENE AND USE THEREOF” (BEIJING DABEINONG BIOTECHNOLOGY CO., LTD., priority 2021, published 2025).

Tests used:
Assay type in all cases: in vivo
[1] = test system: Arabidopsis thaliana T1 plants; test: Topramezone tolerance of transgenic Arabidopsis thaliana T1 plants (spray, bleached leaf area grade, damage score); details: 7 DAT, Table 4; for Classification and statistics of the grade of pesticide damage: Grade 0 / Classification and statistics of the grade of pesticide damage: Grade 1 / Classification and statistics of the grade of pesticide damage: Grade 2 / Classification and statistics of the grade of pesticide damage: Grade 3: number of plants; for Scores: pesticide damage score 0-100
In short: (§1)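 Damage graded 0–3 from the proportion of bleached leaf area 7 days after spraying. Plants were glufosinate-selected T1 lines, 18 days after sowing, plus vector and wild-type controls. Rates: mesotrione 52.5–420, isoxaflutole 35–280, topramezone 25–200 g ai/ha, with water (0×).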

[2] = test system: Arabidopsis thaliana T1 plants; test: Isoxaflutole tolerance of transgenic Arabidopsis thaliana T1 plants (spray, bleached leaf area grade, damage score); design: Scores (pesticide damage): scale not given here; details: spray, Arabidopsis thaliana T1 plants; for Classification and statistics of the grade of pesticide damage: Grade 0 (number of plants) / Classification and statistics of the grade of pesticide damage: Grade 1 (number of plants) / Classification and statistics of the grade of pesticide damage: Grade 2 (number of plants) / Classification and statistics of the grade of pesticide damage: Grade 3 (number of plants): 16 plants
In short: as §1

[3] = test system: Arabidopsis thaliana T1 plants; test: Mesotrione tolerance of transgenic Arabidopsis thaliana T1 plants (spray, bleached leaf area grade, damage score); design: Scores: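 damage score 0-100 computed as Σ(N×S)/(T×M)×100 over grades 0-3 with higher meaning more damage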; details: Arabidopsis thaliana T1 plants; for Grade 0 (classification and statistics of the grade of pesticide damage; number of plants) / Grade 1 (classification and statistics of the grade of pesticide damage; number of plants) / Grade 2 (classification and statistics of the grade of pesticide damage; number of plants) / Grade 3 (classification and statistics of the grade of pesticide damage; number of plants): 16 plants
In short: as §1

[4] = isoxaflutole 35 g ai/ha (0.5x field concentration)
[5] = isoxaflutole 70 g ai/ha (1x field concentration)

B1: GmHPPD-02: nucleotide sequence encoding wild-type Glycine max HPPD; vector DBN11746 (nucleic acid)
DNA: ATGCCAATGTACACACCATCGCTCTCCGCCCCTTCTTCCAACCATATTCAGCCATCCGTGACTCTGCCTCTCTACATCACAACCACCAAGTTGAACCTGAAGCAGCAGCACCATACGACTCCTATGCCTATACCCATGTGCAATGAGATCCAAGCACAGGCTCAGGCACAAGCTCAACCCGGATTCAAACTCGTGGGATTCAAGAACTTCGTCCGTACCAATCCAAAATCTGACCGCTTCCAGGTGAACAGATTCCACCACATAGAGTTTTGGTGTACTGATGCAACGAATGCTTCGAGGAGGTTTTCATGGGGCTTAGGCATGCCGATTGTAGCAAAGTCAGACCTTTCTACAGGGAACCAAATTCATGCAAGCTATCTGCTCCGCTCAGGTGATTTGTCTTTCTTGTTCTCAGCTCCATATTCTCCATCATTATCTGCTGGGTCATCAGCAGCATCTAGTGCGTCGATCCCTAGCTTTGATGCCGCCACCTGCCTCGCCTTCGCCGCCAAACATGGATTTGGTGTTCGCGCCATTGCTCTTGAGGTTGCCGATGCCGAGGCTGCTTTTAGCGCCTCCGTCGCCAAGGGAGCTGAGCCTGCGTCACCTCCTGTTCTTGTTGATGATCGAACTGGTTTTGCTGAAGTGCGTCTTTACGGCGACGTGGTGCTCAGATATGTTAGTTACAAGGATGCTGCTCCTCAAGCGCCGCACGCTGATCCTTCAAGATGGTTTCTTCCGGGGTTTGAGGCCGCTGCTAGTTCATCTTCCTTCCCGGAGTTGGATTACGGCATACGGCGGCTTGACCATGCTGTCGGCAATGTTCCTGAGCTTGCTCCGGCGGTACGGTACTTGAAAGGTTTCTCCGGGTTCCATGAATTTGCAGAGTTCACGGCGGAAGATGTTGGAACAAGTGAAAGCGGATTGAATTCTGTTGTTTTGGCCAACAACAGTGAAACTGTTCTGCTCCCCCTCAATGAACCAGTTTATGGCACAAAGCGCAAGAGCCAGATTGAAACATATCTCGAGCACAATGAAGGCGCCGGCGTCCAGCATCTTGCTTTGGTGACTCATGATATCTTCACAACACTTAGGGAGATGAGGAAGAGGAGTTTCCTCGGCGGGTTTGAATTCATGCCCAGTCCCCCGCCGACCTACTATGCAAATCTGCACAACAGGGCTGCAGATGTGCTGACTGTAGACCAGATCAAGCAATGTGAAGAACTTGGAATTTTAGTGGATAGAGACGACCAAGGTACACTACTTCAAATATTCACCAAACCAGTCGGTGACAGACCAACAATTTTCATCGAGATTATACAAAGAATTGGATGCATGGTCGAGGATGAAGAAGGGAAGGTGTACCAGAAGGGAGCATGTGGTGGTTTTGGGAAAGGAAATTTTTCTGAGCTGTTTAAATCCATCGAGGAATATGAGAAAACCTTAGAAGCTAAAAGAACTGCATGA
modifications: GmHPPD-02 Nucleotide Sequence
notes: vector DBN11746
- Classification and statistics of the grade of pesticide damage: Grade 0 ([1]; topramezone 25 g ai/ha (1×)): 0
- Classification and statistics of the grade of pesticide damage: Grade 1 ([1]; topramezone 25 g ai/ha (1×)): 0
- Classification and statistics of the grade of pesticide damage: Grade 2 ([1]; topramezone 25 g ai/ha (1×)): 0
- Classification and statistics of the grade of pesticide damage: Grade 3 ([1]; topramezone 25 g ai/ha (1×)): 16
- Classification and statistics of the grade of pesticide damage: Grade 0 ([1]; topramezone 100 g ai/ha (4×)): 0
- Classification and statistics of the grade of pesticide damage: Grade 1 ([1]; topramezone 100 g ai/ha (4×)): 0
- Classification and statistics of the grade of pesticide damage: Grade 2 ([1]; topramezone 100 g ai/ha (4×)): 0
- Classification and statistics of the grade of pesticide damage: Grade 3 ([1]; topramezone 100 g ai/ha (4×)): 16
- Scores ([1]; topramezone 25 g ai/ha (1×)): 100
- Scores ([1]; topramezone 100 g ai/ha (4×)): 100
- Resistance evaluation ([1]; topramezone 25 g ai/ha (1×)): non-resistant (non-resistant plants (scores 68-100))
- Resistance evaluation ([1]; topramezone 100 g ai/ha (4×)): non-resistant (non-resistant plants (scores 68-100))
- Resistance evaluation [2, 4]: Non-resistant
- Scores (pesticide damage) [2, 4]: 100
- Classification and statistics of the grade of pesticide damage: Grade 0 (number of plants) [2, 4]: 0
- Classification and statistics of the grade of pesticide damage: Grade 1 (number of plants) [2, 4]: 0
- Classification and statistics of the grade of pesticide damage: Grade 2 (number of plants) [2, 4]: 0
- Classification and statistics of the grade of pesticide damage: Grade 3 (number of plants) [2, 4]: 16
- Resistance evaluation [2, 5]: Non-resistant
- Scores (pesticide damage) [2, 5]: 100
- Classification and statistics of the grade of pesticide damage: Grade 0 (number of plants) [2, 5]: 0
- Classification and statistics of the grade of pesticide damage: Grade 1 (number of plants) [2, 5]: 0
- Classification and statistics of the grade of pesticide damage: Grade 2 (number of plants) [2, 5]: 0
- Classification and statistics of the grade of pesticide damage: Grade 3 (number of plants) [2, 5]: 16
- Resistance evaluation ([3]; mesotrione 52.5 g ai/ha): Non-resistant
- Scores ([3]; mesotrione 52.5 g ai/ha): 100
- Grade 0 (classification and statistics of the grade of pesticide damage; number of plants) ([3]; mesotrione 52.5 g ai/ha): 0
- Grade 1 (classification and statistics of the grade of pesticide damage; number of plants) ([3]; mesotrione 52.5 g ai/ha): 0
- Grade 2 (classification and statistics of the grade of pesticide damage; number of plants) ([3]; mesotrione 52.5 g ai/ha): 0
- Grade 3 (classification and statistics of the grade of pesticide damage; number of plants) ([3]; mesotrione 52.5 g ai/ha): 16
- Resistance evaluation ([3]; mesotrione 105 g ai/ha): Non-resistant
- Scores ([3]; mesotrione 105 g ai/ha): 100
- Grade 0 (classification and statistics of the grade of pesticide damage; number of plants) ([3]; mesotrione 105 g ai/ha): 0
- Grade 1 (classification and statistics of the grade of pesticide damage; number of plants) ([3]; mesotrione 105 g ai/ha): 0
- Grade 2 (classification and statistics of the grade of pesticide damage; number of plants) ([3]; mesotrione 105 g ai/ha): 0
- Grade 3 (classification and statistics of the grade of pesticide damage; number of plants) ([3]; mesotrione 105 g ai/ha): 16
